Columns and labels:
[1] = molecular target: fibronectin (Homo sapiens) (UniProt P02751); details: cited from earlier work
TIGIT (Homo sapiens) = TIGIT (Homo sapiens) (UniProt Q495A1); details: cited from earlier work
[2] = molecular target: hTIGIT-ECD-Fc (human TIGIT extracellular domain with C-terminal Fc tag, Acro Biosystems #TIT-H5254) (human) (UniProt Q495A1); assay: SPR; Biacore 3000; hTIGIT-ECD-Fc immobilised on CM5 chip (3220 RU); Fap2-ECD injected at 52.5 to 368 nM; 25 mM HEPES-NaOH pH 7.5, 50 mM NaCl, 0.005% Tween-20; 25 °C; global 1:1 Langmuir fit
[3] = molecular target: T1, Fap2 extracellular domain (Fap2-ECD), residues 42-3271, purified after release from the AIDA autotransporter (Fusobacterium nucleatum subsp. …, UniProt A0ABV3Y820 42-3271); assay: SPR; Biacore 3000; hTIGIT-ECD-Fc amine-coupled to a CM5 chip (3220 RU); Fap2-ECD injected at 52.5-368 nM; 25 mM HEPES-NaOH pH 7.5, 50 mM NaCl, 0.005% Tween-20; 25 °C; 1:1 Langmuir global fit; details: both partners purified
T1 construct: Linker GSA before and SAG after the His8 tag; what is left of the TEV site after cleavage follows it; Gene codon-optimised for E. coli; also called Fap2 WT; recombinant Fap2-ECD; not shown: His8, C-terminal, kept

fibronectin (Homo sapiens), sequence (P02751 32-2477): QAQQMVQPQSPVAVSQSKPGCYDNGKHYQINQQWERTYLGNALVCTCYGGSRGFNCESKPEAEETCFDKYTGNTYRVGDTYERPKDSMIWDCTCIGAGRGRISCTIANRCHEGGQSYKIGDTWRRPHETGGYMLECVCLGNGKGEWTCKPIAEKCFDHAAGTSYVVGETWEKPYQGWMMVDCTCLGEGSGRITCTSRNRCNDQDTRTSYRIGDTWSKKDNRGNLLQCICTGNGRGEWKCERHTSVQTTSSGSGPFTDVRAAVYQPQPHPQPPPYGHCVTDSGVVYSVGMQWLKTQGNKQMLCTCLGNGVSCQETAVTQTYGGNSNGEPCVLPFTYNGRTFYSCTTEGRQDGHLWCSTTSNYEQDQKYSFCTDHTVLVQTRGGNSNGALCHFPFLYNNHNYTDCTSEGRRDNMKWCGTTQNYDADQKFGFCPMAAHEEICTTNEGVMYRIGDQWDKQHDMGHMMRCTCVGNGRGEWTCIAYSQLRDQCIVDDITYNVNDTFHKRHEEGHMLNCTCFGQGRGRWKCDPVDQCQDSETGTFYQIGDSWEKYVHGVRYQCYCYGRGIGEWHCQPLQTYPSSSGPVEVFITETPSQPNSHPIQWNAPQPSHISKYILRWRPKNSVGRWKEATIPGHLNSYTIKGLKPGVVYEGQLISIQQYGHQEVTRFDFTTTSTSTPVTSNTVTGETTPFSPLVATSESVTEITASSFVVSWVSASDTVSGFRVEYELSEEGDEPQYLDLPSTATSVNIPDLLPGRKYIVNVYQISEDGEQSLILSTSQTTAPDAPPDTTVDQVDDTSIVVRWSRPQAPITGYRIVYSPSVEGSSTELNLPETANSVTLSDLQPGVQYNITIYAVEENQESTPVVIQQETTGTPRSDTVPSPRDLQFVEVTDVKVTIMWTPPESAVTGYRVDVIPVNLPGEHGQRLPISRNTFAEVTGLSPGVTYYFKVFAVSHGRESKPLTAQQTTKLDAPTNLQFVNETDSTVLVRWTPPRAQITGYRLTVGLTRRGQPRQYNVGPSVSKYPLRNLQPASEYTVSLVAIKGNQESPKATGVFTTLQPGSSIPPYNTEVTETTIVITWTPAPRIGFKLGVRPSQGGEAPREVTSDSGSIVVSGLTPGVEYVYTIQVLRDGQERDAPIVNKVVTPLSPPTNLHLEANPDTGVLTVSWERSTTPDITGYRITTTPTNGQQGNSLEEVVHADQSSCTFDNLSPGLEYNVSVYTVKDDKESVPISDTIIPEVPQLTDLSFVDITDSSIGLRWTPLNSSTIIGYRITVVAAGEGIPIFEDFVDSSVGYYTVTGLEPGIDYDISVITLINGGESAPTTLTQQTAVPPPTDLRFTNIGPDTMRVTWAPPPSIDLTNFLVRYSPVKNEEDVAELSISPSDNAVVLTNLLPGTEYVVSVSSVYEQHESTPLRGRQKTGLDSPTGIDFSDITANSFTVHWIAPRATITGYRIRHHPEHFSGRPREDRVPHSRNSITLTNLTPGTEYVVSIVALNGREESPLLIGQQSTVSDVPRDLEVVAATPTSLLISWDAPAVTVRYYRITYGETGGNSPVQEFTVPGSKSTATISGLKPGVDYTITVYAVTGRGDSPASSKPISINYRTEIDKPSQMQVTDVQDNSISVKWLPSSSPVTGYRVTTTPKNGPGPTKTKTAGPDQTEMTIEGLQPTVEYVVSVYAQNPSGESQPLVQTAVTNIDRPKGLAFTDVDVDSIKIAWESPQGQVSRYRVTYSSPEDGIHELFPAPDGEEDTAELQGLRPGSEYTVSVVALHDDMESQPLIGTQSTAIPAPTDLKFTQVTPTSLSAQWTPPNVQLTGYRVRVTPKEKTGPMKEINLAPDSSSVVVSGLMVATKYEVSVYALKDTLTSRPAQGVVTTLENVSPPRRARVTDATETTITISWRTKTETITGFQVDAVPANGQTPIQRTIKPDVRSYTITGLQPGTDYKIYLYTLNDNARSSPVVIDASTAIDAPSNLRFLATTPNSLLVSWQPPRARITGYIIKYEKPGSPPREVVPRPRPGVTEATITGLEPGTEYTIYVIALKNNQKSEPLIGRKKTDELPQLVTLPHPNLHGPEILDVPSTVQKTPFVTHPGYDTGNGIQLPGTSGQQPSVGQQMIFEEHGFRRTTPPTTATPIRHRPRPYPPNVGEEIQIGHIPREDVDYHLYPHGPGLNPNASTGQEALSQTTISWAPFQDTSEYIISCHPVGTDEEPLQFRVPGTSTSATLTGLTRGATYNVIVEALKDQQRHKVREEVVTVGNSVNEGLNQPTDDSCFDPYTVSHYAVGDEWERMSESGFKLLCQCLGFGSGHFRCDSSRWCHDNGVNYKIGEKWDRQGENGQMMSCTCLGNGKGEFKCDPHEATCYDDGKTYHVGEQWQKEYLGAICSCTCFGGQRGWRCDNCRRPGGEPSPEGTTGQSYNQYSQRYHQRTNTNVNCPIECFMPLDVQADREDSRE

For lipoprotein P4 (from UniProt P26093), the Kd [1] is listed as 10 nM.

In the case of Nectin-2 (from UniProt Q92692), the Kd (TIGIT (Homo sapiens)) is given as 6000 nM.

Molecule “Fap2 extracellular domain (Fap2-ECD, residues 42-3271) from Fusobacterium nucleatum subsp. nucleatum ATCC23726, wild type (domain or fragment)” has a Ka [2] of 1.72e+06 M⁻¹, a Kd [2] of 583 nM and a koff [2] of 0.0308 s⁻¹.

B1: human TIGIT extracellular domain with C-terminal Fc tag (Acro Biosystems #TIT-H5254) (Fc fusion, UniProt Q495A1 22-141, looked up)
chain: MMTGTIETTGNISAEKGGSIILQCHLSSTTAQVTQVNWEQQDQLLAICNADLGWHISPSFKDRVAPGPGLGLTLQSLTVNDTGEYFCIYHTYPDGTYTGRIFLEVLESSVAEHGARFQIP
notes: TIGIT, human, extracellular domain; The text calls it glycosylated hTIGIT-ECD in the SPR; also called hTIGIT-ECD-Fc; hTIGIT-Fc; source: bought: Acro Biosystems, #TIT-H5254; not shown: Fc, C-terminal, kept
Work on B1 yielded a Kd [3] of ~600 nM and a koff [3] of 0.03 ± 0.001 s⁻¹.
